From the DeepSol protein solubility set

Assay: soluble on expression in E. coli; label from the status in PepcDB or PDB records

Soluble on expression in E. coli, not soluble:
MGSDKIHHHHHHSPTQELNSAKIISTLTAHYGERAGLRAKAWFQVLSKAEHVDEQEKLKMVNQFFNLFRFVEDKTLWGDSNYWATPMEFIGVNGGDCEDFSIAKYFTLLQLGVSEDKLRITMVKATTMNQYHMVLAYYPTPSSIPLVLDNLDREIKPATQRNDLLPVYSFNGKQLWLNKEKGRGVLAGSSSRLKKWNDLKHRLGVDRLRQPKLKME
MGSDKIHHHHHHSTPTEFKRPSLKVLFGSFVGEYPGIIAQEKGFFKAQGVDVELIHKRYIQLEQANFSAGKYDGMTSSLGNLIILSAINLDIQGVIVIDESTGADVVVAQPQIKTVADLKGKKLGANLGGFSELFITEMLKTNNLNSNDVNLVRLEALKIPQNLKKNFIQAGHTWEPYLSEAMKIGGNILFTSKQTPGLILDLMIFRGDVIRDRPGDIRAFVQGWLQASEYWKENVQEGNTIISKALKIPSNTISLEGISLTSLDENQNLFQFSNPNSIDKIAKVYADFFIRAGNLTRIPELKSLFNSSFLNPAS
MGSDKIHHHHHHVDIQALKKVSELDVFSLLVFKLIYETGFANFAAKELAVSAPKISRCLTSLRAIFNDELFFRRQQGLKPTPLAERLYQPVCQLCDMVSQIERVADDRLNHHQTPILHIAVSPSIITSVAIALSKLPRDVIGKVKLHSWQADTEELIYNGELDFGIGFETQDTHGLEAYPIANVTSLCVVGNTNHLFWAGAEQIKLEDIIQHPIVYLRCKGFNNRIDPLELYCQTHGLLLEDIECARKLEDWYWHILTMDSLAITICNEGSFAQQIPQLRVERLPQSEFTKLNSVMAMPSYCLIERAEHYRRYSLNVKEMIIDIIKSLLV
MGSDKIHHHHHHVDRGCQWRGDDSLRGQRHERRGQLRLMGAAEYASQVRTLPKLGLGVGLRNEHFNHILSERPNVDWFEAISENFMDSGGRPGWVIRQIAEHYPIVLHGVSLSIGSADPLNEGYLARLKLLADDVQAKWVSDHLCWTGVLSINSHDLLPLPLNEETLGHVTSRVHHVQEVLGRPLILENPSTYASFQTSDIPEPEFLRALSDATGCGLLLDVNNVYVSCFNDGTDPLEYLEKIPFEKVIQMHLAGHTNCGEFLLDTHDQPVTRGVWELFRLAWQRTGGAATLLEWDGDVPAFEDLHAEVLKAREFMAGEVEALHLYQGAAAPGRARVSNPVDHIVSPVRGHSRLDA
MGSDKIHHHHHHVEFIVGGATGEFYFLEMNTRLQVEHPVTEMITGLDLVEQMIRVAYGEKLKITQDDVKLQGWSMEARVYAEDPFRNFLPSTGRLTRYQPPAESQHVRVDTGVYEGGEISMFYDPMIAKLITYGPTRETAIAHMRQALDEYHIRGLSHNIPFLASLFSKERFVKGNLTTNFIAEEYPNGFTSSDLPSDDPTTLIAVAAAMKRRIVERNIQISGQFPGHEMKAPTEWTVLIGGTYHEVDVHPAPGGYAVVVEGEAVEVKTDWQIGDPLIRAKVDDRMVCVQVDRTGVSFRLSHSGVQAEVWVLTRPTAKLHKLMPFKAPPDMSKYLLSPMPGLLAKLLVEEGQEVKAGEPLAVVEAMKMENILKAERDAKIAKVHAKSGDSLAVDQKIIEFAS
MGSDKIHHHHHHVILSDWLAARLDRSAAEPVYRQTLRLMQQAILTGQLPPGTKLPSSRTLAQDLGIARNTVLHVYDQLTAEGYVISTTGSGTYVADTRPDTAAVNARKKPVVVSGIETDADAAIETTRRPKRDLGDLSTRGRRLIDTAGVSAKQWGAFMPGVPDVAEFPARTWSRLQARLWKEANPDLLTYAPGGGYRPLRRALSDYLRVARSVNCTPDQIIITTGIHQSIDLAVRLLTDVGDRAWVEEPCYWGARSVLQSSGITLVPVPVDDEGLNPREQDLQQPPRLALVTPSHQYPLGMVMSLARRRTLLEYARQHNVWIIEDDYDSEFRYGSRPLASLQGLDDAGQVIYVGSLGKMLFPGLRIGYMIAPEHLVDTFRTGVAELYREGQLMQQAVMTDFIMDGHLTSHVRRMRALYGERRQILIDAITARFGSELPVMGDEAGLHLVLGLPDHANDRAVTAAAYDAGVIVRPLASYYSGDTPARRGLLLGYACVPNDRIGPAFDTLARVIEQTALKTPTRAA
MGSDKIHHHHHHVITLWGRLNSHNVKKVAWALIEMDLPHQRRDIGGQFGYTTDYLAKNPNRMVPMIEEGELALWESNAILRYLADRHAPAFRSDDPVVRAQGDKWMDWQFHFADAQRDAFLGCVRHGKDASDPAVATSATAAAGMMAILDEELARRPWLSGDRFGIADIPMGVYAHTYHSLPIERPDLPHLADWYARLRTRPGYASQVMIPLI
